Results published in IntAct's records for PubMed 16388599.

B1: Tyrosine-protein phosphatase non-receptor type 1 (Homo sapiens), P18031 (parent)
chain: MEMEKEFEQIDKSGSWAAIYQDIRHEASDFPCRVAKLPKNKNRNRYRDVSPFDHSRIKLHQEDNDYINASLIKMEEAQRSYILTQGPLPNTCGHFWEMVWEQKSRGVVMLNRVMEKGSLKCAQYWPQKEEKEMIFEDTNLKLTLISEDIKSYYTVRQLELENLTTQETREILHFHYTTWPDFGVPESPASFLNFLFKVRESGSLSPEHGPVVVHCSAGIGRSGTFCLADTCLLLMDKRKDPSSVDIKKVLLEMRKFRMGLIQTADQLRFSYLAVIEGAKFIMGDSSVQDQWKELSHEDLEPPPEHIPPPPRPPKRILEPHNGKCREFFPNHQWVKEETQEDKDCPIKEEKGSPLNAAPYGIESMSQDTEVRSRVVGGSLRGAQAASPAKGEPSLPEKDEDHALSYWKPFLVNMCVATVLTAGAYLCYRFLFNSNT

Variants of: B1
Conditions: with cav1_human CAV1, Q03135
Sequence of cav1_human CAV1, Q03135 (Q03135 whole entry): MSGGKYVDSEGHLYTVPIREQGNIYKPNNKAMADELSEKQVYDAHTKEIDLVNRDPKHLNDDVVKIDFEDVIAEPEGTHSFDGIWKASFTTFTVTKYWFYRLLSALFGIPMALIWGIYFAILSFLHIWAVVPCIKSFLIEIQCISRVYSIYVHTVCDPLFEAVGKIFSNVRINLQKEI

effect of a mutation on the interaction	Variant
disrupting interaction	D181A
